Experimental data as given in PMC7858052, “Z-Ring-Associated Proteins Regulate Clustering of the Replication Terminus-Binding Protein ZapT in Caulobacter crescentus” (mBio, 2021).

B1: ZauP with an N-terminal hexahistidine-SUMO tag (natural protein, Caulobacter crescentus, UniProt A0A0H3CD23 1-127, looked up)
chain: MIPADSTALDLAVRRLERAVSQLEQRLAAKAAETQRALAAAATSAVALPLAVTEPSLFDDDERARLVADLEAAREREKALEEAGEQASVALGRAIAEIRAALGDESVANDLHAPGDDDDLFEDSEEA
notes: ZauP, functional ZapB homolog of Caulobacter crescentus NA1000, locus CCNA_03357; tagged protein printed as 26 kDa; primers Nhis-SUMO-zapB-P3/P4 run from the start codon to the stop codon; also called His-ZauP; source: E. coli, purified (procedure in Text S1); not shown: His6-SUMO, N-terminal, kept
B2: ZapT with a C-terminal hexahistidine tag (natural protein, Caulobacter crescentus, UniProt A0A0H3C832 1-141, looked up)
chain: MAKGPNAFRTISEAAEELGVPQHVLRFWETKFSFIRPMKRAGGRRFYRPQDIAVLNGVRTLLHSEGLTIKGVQKLHRDHGLAHVIAAGLGSNGSASLEAEYDYAPRGKERPVGEETRDRLAFALADLTAIKSRLDGLLARG
notes: tagged protein printed as 21 kDa; the last residue of ZapT is printed as Gly141; also called ZapT-His; wild-type ZapT-His; source: E. coli, purified (procedure in Text S1); not shown: His6, C-terminal, kept
B3: ZapA with an N-terminal hexahistidine-MBP tag (natural protein, Caulobacter crescentus, UniProt A0A0H3CCW6 1-108, looked up)
chain: MAQVTIQVNGRPYMVGCEDGQEPHLTELARLFDRQVRQVSQDVGQLGETRLFLMGALLLADELSDMKLRLAHANAEIARMQQEGTKAEIAAIRALDAAAERIEKLATE
notes: ZapA, Z-ring-associated protein of Caulobacter crescentus NA1000, locus CCNA_03356; tagged protein printed as 56 kDa; primers NhisMBP-zapA-fwd/rev run from the start codon to the stop codon; also called His-ZapA; source: E. coli, purified (procedure in Text S1); not shown: His6-MBP, N-terminal, kept

Assays:
[1] = biological target: truncated variant of ZapT-His that lacks the C-terminal sensor domain (Caulobacter crescentus); experiment: SEC; Superdex 200 PC3.2/30; 25 mM Tris-HCl pH 7.5, 300 mM NaCl, 20% sucrose; 20 ul/min; fractions on SDS-15% PAGE, Coomassie; single proteins and mixtures (also His-ZauP + ZapT-His + ZapTΔC-His with ZapT-His as internal control)
[2] = biological target: the molecule itself; experiment: as above

| Molecule | stoichiometry N [1] | stoichiometry N [2] |
| --- | --- | --- |
| truncated variant of ZapT-His that lacks the C-terminal sensor domain (domain or fragment) | 2 |  |
| B1 |  | 6 |
| B2 |  | 2 |
| B3 |  | 4 |
